Data as given in patent US20220265856A1 (MODERNATX, published 2022).

T1: human propionyl-CoA carboxylase alpha (PCCA), wild-type isoform 1 (human, UniProt P05165 53-728)
T1 construct: Made inside transfected cells or mouse liver from mRNA encoding the full-length precursor; also called hPCCA; propionyl-CoA carboxylase alpha subunit
T1 sequence: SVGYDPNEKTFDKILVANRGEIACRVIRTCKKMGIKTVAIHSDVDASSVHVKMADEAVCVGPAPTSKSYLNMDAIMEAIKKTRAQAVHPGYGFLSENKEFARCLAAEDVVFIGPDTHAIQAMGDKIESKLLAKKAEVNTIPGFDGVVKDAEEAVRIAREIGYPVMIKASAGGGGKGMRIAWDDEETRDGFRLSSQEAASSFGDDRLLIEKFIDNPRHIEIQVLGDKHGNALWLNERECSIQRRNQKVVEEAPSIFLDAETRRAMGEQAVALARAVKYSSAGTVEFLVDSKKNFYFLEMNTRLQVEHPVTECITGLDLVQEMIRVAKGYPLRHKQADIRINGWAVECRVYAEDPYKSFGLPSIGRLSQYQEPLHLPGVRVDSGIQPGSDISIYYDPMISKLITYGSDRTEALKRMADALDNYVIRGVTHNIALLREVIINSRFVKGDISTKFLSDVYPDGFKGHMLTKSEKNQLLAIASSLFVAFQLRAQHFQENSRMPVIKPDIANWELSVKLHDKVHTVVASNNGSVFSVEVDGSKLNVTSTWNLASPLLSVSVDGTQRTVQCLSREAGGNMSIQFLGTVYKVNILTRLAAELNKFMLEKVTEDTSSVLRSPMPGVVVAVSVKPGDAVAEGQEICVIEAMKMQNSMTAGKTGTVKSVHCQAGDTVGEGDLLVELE

T2: human propionyl-CoA carboxylase beta (PCCB), wild-type isoform 1
T2 chain: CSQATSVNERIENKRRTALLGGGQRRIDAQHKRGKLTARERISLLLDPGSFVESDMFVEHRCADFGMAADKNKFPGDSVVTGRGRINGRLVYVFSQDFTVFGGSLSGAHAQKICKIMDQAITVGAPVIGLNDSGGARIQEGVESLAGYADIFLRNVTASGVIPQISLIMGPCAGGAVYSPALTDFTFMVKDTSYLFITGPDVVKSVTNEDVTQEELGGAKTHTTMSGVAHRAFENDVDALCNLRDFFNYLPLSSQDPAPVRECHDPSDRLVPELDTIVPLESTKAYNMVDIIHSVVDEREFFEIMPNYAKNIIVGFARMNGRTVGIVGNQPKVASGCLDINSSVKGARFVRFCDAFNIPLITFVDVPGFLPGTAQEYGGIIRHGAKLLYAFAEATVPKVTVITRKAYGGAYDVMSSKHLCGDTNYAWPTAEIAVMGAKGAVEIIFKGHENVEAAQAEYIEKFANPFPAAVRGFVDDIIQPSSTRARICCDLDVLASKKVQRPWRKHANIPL


How the values were obtained:
[1] = target: T1, human propionyl-CoA carboxylase alpha …; experiment: immunofluorescence co-localisation with mitochondria in GM371 PCCA-deficient patient fibroblasts, 24 h after co-transfection of PCCA_18 and PCCB_18 mRNAs
Procedure: The subcellular co-localization of PCCA and PCCB proteins was examined in GM371 PCCA-deficient patient fibroblasts (9,000 cells/well on a 96-well plate) 24 hours after transfection with a total of 25 ng of 1-methyl-pseudouridine modified mRNAs encoding human PCCA (PCCA_18; SEQ ID NO: 35) and PCCB (PCCB_18; SEQ ID NO: 46), or a luciferase control. Commercial anti-PCCA monoclonal antibody (Santa Cruz #sc-393527) and anti-PCCB polyclonal antibody (Novus #NBP1-85886) were used to detect mRNA-expressed PCCA and PCCB using immunofluorescence microscopy. Mitotracker Red was used to confirm the identity of mitochondria and DAPI was used to stain nuclei. Image analysis was performed on a Zeiss ELYRA imaging system. […] There was no PAAC or PCCB staining in negative control cells that were transfected with mRNA encoding luciferase.

[2] = target: T2, human propionyl-CoA carboxylase beta …

Binder | binding result [1] | PCC activity in GM371 PCCA-deficient patient fibroblasts at different PCCA:PCCB mRNA molar ratios, 24 h and 40 h [2] | PCC activity in GM1298 PCCB-deficient patient fibroblasts at different PCCA:PCCB mRNA molar ratios, 24 h [2] | PCC enzyme activity (radiometric assay, MicroBeta readout/ug protein) in PCCA- and PCCB-deficient patient fibroblasts: co-transfection of PCCA and PCCB mRNAs at 1:1 against either mRNA alone [2]
human propionyl-CoA carboxylase beta (PCCB), wild-type isoform 1 (enzyme, Made inside transfected cells or mouse liver from mRNA encoding the full-length precursor; also called hPCCB; propionyl-CoA carboxylase beta subunit) CSQATSVNERIENKRRTALLGGGQRRIDAQHKRGKLTARERISLLLDPGSFVESDMFVEHRCADFGMAADKNKFPGDSVVTGRGRINGRLVYVFSQDFTVFGGSLSGAHAQKICKIMDQAITVGAPVIGLNDSGGARIQEGVESLAGYADIFLRNVTASGVIPQISLIMGPCAGGAVYSPALTDFTFMVKDTSYLFITGPDVVKSVTNEDVTQEELGGAKTHTTMSGVAHRAFENDVDALCNLRDFFNYLPLSSQDPAPVRECHDPSDRLVPELDTIVPLESTKAYNMVDIIHSVVDEREFFEIMPNYAKNIIVGFARMNGRTVGIVGNQPKVASGCLDINSSVKGARFVRFCDAFNIPLITFVDVPGFLPGTAQEYGGIIRHGAKLLYAFAEATVPKVTVITRKAYGGAYDVMSSKHLCGDTNYAWPTAEIAVMGAKGAVEIIFKGHENVEAAQAEYIEKFANPFPAAVRGFVDDIIQPSSTRARICCDLDVLASKKVQRPWRKHANIPL | binds |  |  | 
human propionyl-CoA carboxylase alpha (PCCA), wild-type isoform 1 (protein) SVGYDPNEKTFDKILVANRGEIACRVIRTCKKMGIKTVAIHSDVDASSVHVKMADEAVCVGPAPTSKSYLNMDAIMEAIKKTRAQAVHPGYGFLSENKEFARCLAAEDVVFIGPDTHAIQAMGDKIESKLLAKKAEVNTIPGFDGVVKDAEEAVRIAREIGYPVMIKASAGGGGKGMRIAWDDEETRDGFRLSSQEAASSFGDDRLLIEKFIDNPRHIEIQVLGDKHGNALWLNERECSIQRRNQKVVEEAPSIFLDAETRRAMGEQAVALARAVKYSSAGTVEFLVDSKKNFYFLEMNTRLQVEHPVTECITGLDLVQEMIRVAKGYPLRHKQADIRINGWAVECRVYAEDPYKSFGLPSIGRLSQYQEPLHLPGVRVDSGIQPGSDISIYYDPMISKLITYGSDRTEALKRMADALDNYVIRGVTHNIALLREVIINSRFVKGDISTKFLSDVYPDGFKGHMLTKSEKNQLLAIASSLFVAFQLRAQHFQENSRMPVIKPDIANWELSVKLHDKVHTVVASNNGSVFSVEVDGSKLNVTSTWNLASPLLSVSVDGTQRTVQCLSREAGGNMSIQFLGTVYKVNILTRLAAELNKFMLEKVTEDTSSVLRSPMPGVVVAVSVKPGDAVAEGQEICVIEAMKMQNSMTAGKTGTVKSVHCQAGDTVGEGDLLVELE |  | a PCCA:PCCB molar ratio of 1:1 (A:B ratio of 1:1) increased PCC activity the greatest in PCCA-deficient patient fibroblasts | a PCCA:PCCB molar ratio of 1:1 (A:B ratio of 1:1) increased PCC activity the greatest in PCCB-deficient patient fibroblasts | 5-25 fold higher
